Source: patent US20120184020A1, “ENGINEERED MICROORGANISMS WITH ENHANCED FERMENTATION ACTIVITY” (Verdezyne, Inc., priority 2009, published 2012)
Where a chain is given by its changes, count along the chain named. In names and notes the source's numbering stands.

B1: Mutant 13: S. cerevisiae ZWF1 site-directed mutant A24G/A51D (protein, UniProt P11412 2-505, looked up, variant A24G A51D)
Glucose-6-phosphate …: SEGPVKFEKNTVISVFGASGDLGKKKTFPALFGLFREGYLDPSTKIFGYDRSKLSMEEDLKSRVLPHLKKPHGEADDSKVEQFFKMVSYISGNYDTDEGFDELRTQIEKFEKSANVDVPHRLFYLALPPSVFLTVAKQIKSRVYAENGITRVIVEKPFGHDLASARELQKNLGPLFKEEELYRIDHYLGKELVKNLLVLRFGNQFLNASWNRDNIQSVQISFKERFGTEGRGGYFDSIGIIRDVMQNHLLQIMTLLTMERPVSFDPESIRDEKVKVLKAVAPIDTDDVLLGQYGKSEDGSKPAYVDDDTVDKDSKCVTFAAMTFNIENERWEGVPIMMRAGKALNESKVEIRLQYKAVASGVFKDIPNNELVIRVQPDAAVYLKFNAKTPGLSNATQVTDLNLTYASRYQDFWIPEAYEVLIRDALLGDHSNFVRDDELDISWGIFTPLLKHIERPDGPTPEIYPYGSRGPKGLKEYMQKHKYVMPEKHPYAWPVTKPEDTKDN
B2: XI-Rp5: chimera: first 5 amino acids of Piromyces xylose isomerase followed by Ruminococcus xylose isomerase, SEQ ID NO. 56 (protein)
chain: MAKEYFSNIGKIQYQGPKSTDPLSFKYYNPEEVINGKTMREHLKFALSWWHTMGGDGTDMFGCGTTDKTWGQSDPAARAKAKVDAAFEIMDKLSIDYYCFHDRDLSPEYGSLKATNDQLDIVTDYIKEKQGDKFKCLWGTAKCFDHPRFMHGAGTSPSADVFAFSAAQIKKALESTVKLGGNGYVFWGGREGYETLLNTNMGLELDNMARLMKMAVEYGRSIGFKGDFYIEPKPKEPTKHQYDFDTATVLGFLRKYGLDKDFKMNIEANHATLAQHTFQHELRVARDNGVFGSIDANQGDVLLGWDTDQFPTNIYDTTMCMYEVIKAGGFTNGGLNFDAKARRGSFTPEDIFYSYIAGMDAFALGFRAALKLIEDGRIDKFVADRYASWNTGIGADIIAGKADFASLEKYALEKGEVTASLSSGRQEMLESIVNNVLFSL
B3: Codon-optimized EDA from P. aeruginosa: codon-optimized version of the P. aeruginosa EDA gene (protein, UniProt O68283 1-220, looked up)
2-dehydro-3-deoxy-phosphogluco …: MHNLEQKTARIDTLCREARILPVITIDREADILPMADALAAGGLTALEITLRTAHGLTAIRRLSEERPHLRIGAGTVLDPRTFAAAEKAGASFVVTPGCTDELLRFALDSEVPLLPGVASASEIMLAYRHGYRRFKLFPAEVSGGPAALKAFSGPFPDIRFCPTGGVSLNNLADYLAVPNVMCVGGTWMLPKAVVDRGDWAQVERLSREALERFAEHRRH
modifications: codon-optimized gene
B4: XI-Rp10: chimera: first 10 amino acids of Piromyces xylose isomerase then amino acids 11 to 438 of Ruminococcus enzyme, SEQ ID NO. 58 (protein)
chain: MAKEYFPQIQQYQGPKSTDPLSFKYYNPEEVINGKTMREHLKFALSWWHTMGGDGTDMFGCGTTDKTWGQSDPAARAKAKVDAAFEIMDKLSIDYYCFHDRDLSPEYGSLKATNDQLDIVTDYIKEKQGDKFKCLWGTAKCFDHPRFMHGAGTSPSADVFAFSAAQIKKALESTVKLGGNGYVFWGGREGYETLLNTNMGLELDNMARLMKMAVEYGRSIGFKGDFYIEPKPKEPTKHQYDFDTATVLGFLRKYGLDKDFKMNIEANHATLAQHTFQHELRVARDNGVFGSIDANQGDVLLGWDTDQFPTNIYDTTMCMYEVIKAGGFTNGGLNFDAKARRGSFTPEDIFYSYIAGMDAFALGFRAALKLIEDGRIDKFVADRYASWNTGIGADIIAGKADFASLEKYALEKGEVTASLSSGRQEMLESIVNNVLFSL
B5: XI-Rp15: chimera: first 15 amino acids of Piromyces xylose isomerase then amino acids 16 to 438 of Ruminococcus enzyme, SEQ ID NO. 60 (protein)
chain: B4 chain with Q11K, Y12I, Q13K, G14F, P15E

Key:
[1] = system: engineered yeast (S. cerevisiae); experiment: Heterologous xylose isomerase expression in yeast (active yes/no); format: cell-based; conditions: xylose isomerase of donor organism expressed in engineered yeast (S. cerevisiae)
[2] = Xylose isomerase activity/kinetic assay on soluble whole cell extract (sorbitol dehydrogenase coupled, NADH, A340); format: biochemical; conditions: for Km: xylose 40-500 mM
Procedure: […] Louis, Mo.), and about 2 U sorbitol dehydrogenase (Roche) at about 30° C. […] A Beckman DU-800 was utilized with an Enzyme Mechanism software package (Beckman Coulter, Inc.), and the change in the A340 was monitored for 2-3 minutes.
[…] Louis, Mo.), and 2 U Sorbitol Dehydrogenase (SDH) (Roche, Indianapolis, Ind.) at about 30° C. […] A Beckman DU-800 spectrophotometer was utilized with an Enzyme Mechanism software package (Beckman Coulter, Inc, Brea, Calif.), and the change in the A340 was monitored for 2-3 minutes.
[…] Louis, Mo.), and 2 U sorbitol dehydrogenase (SDH) (Roche, Indianapolis, Ind.) at about 30° C. […] A Beckman DU-800 spectrophotometer was utilized with an Enzyme Mechanism software package (Beckman Coulter, Inc, Brea, Calif.), and the change in the A340 was monitored for 2-3 minutes.
Approximately 20 μg of soluble whole cell extract from each transformed cell line was prepared using Y-PER plus reagent as described above was incubated in a solution containing about 100 mM Tris, pH 7.5, 10 mM MgCl ? 2, 0.15 mM NADH (Sigma, St. Louis, Mo.), and 2 U Sorbitol Dehydrogenase (SDH) (Roche, Indianapolis, Ind.) at about 30° C. […] A Beckman DU-800 spectrophotometer was utilized with an Enzyme Mechanism software package (Beckman Coulter, Inc, Brea, Calif.), and the change in the A340 was monitored for 2-3 minutes.

[3] = ZWF1 (glucose-6-phosphate dehydrogenase) kinetic assay on crude extract with NADP+ or NAD+; format: biochemical
Procedure: Strain BY4742 zwf1 (ATCC Cat. No. 4011971; Winzeler E A, et al. Science 285: 901-906, 1999. PubMed: 10436161) was used as the base strain for all ZWF1 assays. The assays were performed as follows: A 5 ml overnight of the strain expressing the ZWF1 gene was grown in SCD-ura. A 50 ml culture of the strain was then grown for about 18 hours from an initial OD600 of about 0.2 until it had reached about OD600 of about 4. The cells were centrifuged at 1046×g washed twice with 25 ml cold sterile water, and resuspended in 2 ml/g Yper Plus (Thermo Scientific) plus 1×protease inhibitors (EDTA-free). The cells were allowed to lyse at room temperature for about 30 minutes with constant rotation of the tubes. The lysate was centrifuged at 16,100×g for 10 minutes at 4° C. and the supernatants were transferred to a new 1.5 ml microcentrifuge tube. Quantification of the lysates was performed using the Coomassie-Plus kit (Thermo Scientific, San Diego, Calif.) as directed by the manufacturer.
The reaction was started with 20 mM glucose-6-phosphate and the reaction was monitored at A340. The specific activity was measured as the μmol substrate/min/mg protein.

[4] = EDA activity assay: S. cerevisiae EDA extracts with saturating E. coli EDD extract (LDH coupled, NADH); format: biochemical; conditions: EDAs expressed in S. cerevisiae, saturating E. coli EDD extract
Procedure: EDA genes isolated from a variety of sources were expressed in yeast and evaluated independently of EDA activity, to identify EDA activities suitable of inclusion in an engineered yeast strain. […] The activity of integrated EDAs in Thermosacc-Gold haploids, were also evaluated in this manner.
EDD extractions (adapted from Chemyan et al, Protein Science 16:2368-2377, 2007): • 1) Pellet cells in 50 ml conical tubes, 4° C., 3,000 rpm, 10 mins, discard supernatant. • 2) Resuspend in 2 ml degassed PDGH buffer (20 mM MES pH 6.5, 30 mM NaCl, 5 mM MnCl2, 0.5 mM FeCl2, 10 mM 2-mercaptoethanol, 10 mM cysteine, sparged with nitrogen gas). Move to hungate tube. • 3) Add 0.1% Triton X-100, 10 ng/ml DNase, 10 μg/ml PMSF, 10 μg/ml TAME (Na-(p-toluene sulfonyl)-L-arginine methyl ester), 100 μg/ml lysozyme. • 4) Sparge hungate tube with nitrogen gas, cap and seal. Incubate 2 hours at 37° C., swirl occasionally. • 5) Clarify by centrifugation in 2-ml tube, 4° C., 10 mins, 14,000 rpm. Keep supernatant. • 6) Treat with 150 mM pyruvate and 10 mM sodium cyanoborohydride (work in hood) to inactivate aldolase activity. Incubate 30 mins at room temperature. • 7) During incubation, pre-equilibrate PD-10 column from GE • a. Remove top cap, pour off storage buffer. • b. Cut off bottom tip, fit in 50 ml conical with adapter. • c. Pour 5 ml of 20 mM MES buffer, pH 6.5 (total of 5 times). Discard flow-through. • 8) Run sample through column, then add MES buffer to a total of 2.5 ml volume added. Discard flow-through. • 9) Run 3.5 ml 20 mM MES pH 6.5 buffer to elute protein. Discard column in appropriate waste receptacle. • 10) Perform Bradford assay (1:10 or 1:20 dilution).
• 1) Spin down in 50 ml conicals, 4° C., 3,400 rpm, 5 mins. […]
Each reaction contains 50 mM Tris-HCl, pH 7, 10 mM MgCl2, 0.15 mM NADH, 15 μg LDH, saturating amounts of EDD determined empirically (usually −100 μg), 1-50 μg EDA (depending on level of activity), and 1 mM 6-phosphogluconate. Reactions are started by the addition of 6-phosphogluconate and monitored for 5 mins at 30° C.

Molecule | Specific Activity ([2]; chimeric variants) [µmol/min/mg] | Km ([2]; chimeric variants) [mM] | other results
Piromyces xylose isomerase: xylose isomerase from Piromyces strain E2, SEQ ID NO. 35 [reference compound] | – | – | Active? (yes/no) [1]: Yes; Specific Activity ([2]; soluble whole cell extract, about 30° C.): 2.02 µmol/min/mg
B1 | – | – | NAD+ usage ([3]; initial kinetic screening of S. cerevisiae ZWF1 (zwf1_sc) mutants, preliminary cofactor phenotype, NAD+ as cofactor): Yes; NADP+ usage ([3]; initial kinetic screening of S. cerevisiae ZWF1 (zwf1_sc) mutants, preliminary cofactor phenotype, NADP+ as cofactor): No; cofactor utilization (NAD+ / NADP+) ([3]; initial kinetic screening of S. cerevisiae ZWF1 mutants): enabled NAD+ utilization with concomitant loss of NADP+ utilization
B2 | 1.45 | 66.5 | –
B3 | – | – | EDA activity compared (in words) [4]: slight improvement over the native sequence
B4 | 2.10 | 75.8 | –
B5 | 1.53 | 49.3 | –
